Test results: patent EP1073891B1, “METHOD OF PREDICTING RECEPTOR MODULATING ACTIVITY” (Duke University, priority 1998, dated 1999)

How the values were obtained:
Assay in all cases: Mammalian two-hybrid, specificity of peptide-nuclear receptor interaction (Example 4.2)
Format in all cases: cell-based
Conditions in all cases: mammalian two-hybrid (Fig. 8)
[1] = target: T1, glucocorticoid receptor (GR-VP16) (Homo sapiens, UniProt P04150)
T1 construct: expressed in transfected cells
T1 sequence (P04150 1-777): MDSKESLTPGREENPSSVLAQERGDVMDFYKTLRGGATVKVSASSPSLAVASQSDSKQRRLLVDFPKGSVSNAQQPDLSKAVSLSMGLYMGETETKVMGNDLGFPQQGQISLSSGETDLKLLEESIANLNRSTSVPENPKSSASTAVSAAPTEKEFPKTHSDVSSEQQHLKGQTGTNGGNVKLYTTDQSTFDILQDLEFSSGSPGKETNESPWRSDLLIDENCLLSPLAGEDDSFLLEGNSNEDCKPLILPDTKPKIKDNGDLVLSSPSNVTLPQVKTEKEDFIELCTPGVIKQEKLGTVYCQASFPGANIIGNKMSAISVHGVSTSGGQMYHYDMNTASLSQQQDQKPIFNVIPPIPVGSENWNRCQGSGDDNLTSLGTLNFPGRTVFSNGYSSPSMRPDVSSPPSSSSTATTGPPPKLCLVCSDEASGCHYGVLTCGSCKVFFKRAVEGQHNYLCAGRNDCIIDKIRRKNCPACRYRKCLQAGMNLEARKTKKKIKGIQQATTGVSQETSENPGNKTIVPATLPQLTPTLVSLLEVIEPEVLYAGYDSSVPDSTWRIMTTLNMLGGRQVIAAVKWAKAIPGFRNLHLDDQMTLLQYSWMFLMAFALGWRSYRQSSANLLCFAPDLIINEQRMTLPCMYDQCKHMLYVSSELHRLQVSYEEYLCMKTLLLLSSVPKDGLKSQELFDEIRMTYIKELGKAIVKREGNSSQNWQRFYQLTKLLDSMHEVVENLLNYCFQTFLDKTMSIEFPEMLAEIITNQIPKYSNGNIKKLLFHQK
Excerpt: (§1) Peptide sequences representing each class was fused to the DNA binding domain (DBD) of the yeast transcription factor Ga14. HepG2 cells were then transiently transfected with expression vectors for ERα-VP16 and the Gal4-peptide fusion proteins. In addition, a luciferase reporter construct under the control of 5 copies of a Ga14 upstream enhancer element was also transfected along with a pCMV-β galactosidase vector to normalize for transfection efficiency. Transfection of the Ga14 DBD alone is included as control. Cells were then induced with various ligands as indicated in the figure and assayed for luciferase activity and β galactosidase activity. Normalized response was obtained by dividing the luciferase activity by the β galactosidase activity.
(§2) The specificity of peptide-nuclear receptor interaction was analyzed (Fig. 8) using the mammalian two-hybrid system. Experimental design is the same as in figure 2 except that either progesterone receptor (PRB-VP16), estrogen receptor beta (ERβ-VP16), glucocorticoid receptor (GR-VP16) or thyroid receptor beta (TRβ-VP16) was tested.

[2] = target: T2, progesterone receptor (PRB-VP16) (Homo sapiens, UniProt P06401)
T2 construct: expressed in transfected cells
T2 sequence (P06401 1-933): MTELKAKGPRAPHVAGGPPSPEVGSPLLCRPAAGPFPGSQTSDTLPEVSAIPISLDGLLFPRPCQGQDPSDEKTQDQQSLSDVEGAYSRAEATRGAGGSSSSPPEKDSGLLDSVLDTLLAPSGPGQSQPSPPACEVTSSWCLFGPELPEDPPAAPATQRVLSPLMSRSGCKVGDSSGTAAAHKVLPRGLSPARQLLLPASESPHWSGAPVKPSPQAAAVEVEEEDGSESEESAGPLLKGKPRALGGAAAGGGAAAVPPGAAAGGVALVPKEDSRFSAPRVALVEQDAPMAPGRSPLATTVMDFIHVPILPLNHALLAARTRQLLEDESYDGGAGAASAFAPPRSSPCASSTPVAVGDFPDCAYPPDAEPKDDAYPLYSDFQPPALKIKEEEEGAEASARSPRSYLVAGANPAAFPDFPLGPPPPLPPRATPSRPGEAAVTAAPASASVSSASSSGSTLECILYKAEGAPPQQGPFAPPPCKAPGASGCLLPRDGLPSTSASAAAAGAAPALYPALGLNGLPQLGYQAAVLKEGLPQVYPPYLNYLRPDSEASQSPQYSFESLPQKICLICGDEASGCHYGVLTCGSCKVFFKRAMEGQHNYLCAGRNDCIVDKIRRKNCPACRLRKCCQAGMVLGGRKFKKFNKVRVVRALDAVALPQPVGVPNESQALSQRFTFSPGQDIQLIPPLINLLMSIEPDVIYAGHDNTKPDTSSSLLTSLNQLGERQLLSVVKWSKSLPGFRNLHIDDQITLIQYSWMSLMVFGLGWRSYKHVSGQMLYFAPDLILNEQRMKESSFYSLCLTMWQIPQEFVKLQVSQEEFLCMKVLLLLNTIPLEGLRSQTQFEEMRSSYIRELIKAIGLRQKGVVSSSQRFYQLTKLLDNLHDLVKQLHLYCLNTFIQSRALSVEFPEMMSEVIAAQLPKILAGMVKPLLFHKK
Excerpt: as §1, §2

[3] = target: T3, thyroid receptor beta (TRβ-VP16) (Homo sapiens, UniProt P10828)
T3 construct: expressed in transfected cells
T3 sequence (P10828 1-461): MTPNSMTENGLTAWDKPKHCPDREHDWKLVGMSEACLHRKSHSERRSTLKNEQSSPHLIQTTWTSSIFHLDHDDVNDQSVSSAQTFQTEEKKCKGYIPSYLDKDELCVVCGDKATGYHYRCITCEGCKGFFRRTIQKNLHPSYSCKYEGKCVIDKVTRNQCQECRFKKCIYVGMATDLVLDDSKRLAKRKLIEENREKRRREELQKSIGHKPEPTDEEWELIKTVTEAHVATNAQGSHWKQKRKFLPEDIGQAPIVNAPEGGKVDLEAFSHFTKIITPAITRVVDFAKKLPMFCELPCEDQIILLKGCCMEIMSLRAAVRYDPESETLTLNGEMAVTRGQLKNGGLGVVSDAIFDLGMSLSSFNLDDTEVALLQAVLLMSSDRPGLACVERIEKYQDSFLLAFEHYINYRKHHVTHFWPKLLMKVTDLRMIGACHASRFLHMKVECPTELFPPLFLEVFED
Excerpt: as §1, §2

Sequence	interaction with GR [1]	interaction with PRB [2]	interaction with TRβ [3]
SSNHQSSRLIELLSR [α/β I]	interact with the αβ I peptide in the presence of the appropriate agonist	interact with the αβ I peptide in the presence of the appropriate agonist	interact with the αβ I peptide in the presence of the appropriate agonist
SSLTSRDFGSWYASR [α II]	None of the receptors tested interact significantly	None of the receptors tested interact significantly	None of the receptors tested interact significantly
SSWDMHQFFWEGVSR [α/β III]	None of the receptors tested interact significantly	None of the receptors tested interact significantly	None of the receptors tested interact significantly
SSPGSREWFKDMLSR [α/β V]		able to associate with PRB in the presence of the PR antagonists RU 486 and ZK 98299	
